Experimental findings from US20060205646 are described below.

The target in one series is bovine serum albumin (UniProt P02769).
Series [1] has as its system T1, p26 protein from Artemia franciscana.
T1 sequence: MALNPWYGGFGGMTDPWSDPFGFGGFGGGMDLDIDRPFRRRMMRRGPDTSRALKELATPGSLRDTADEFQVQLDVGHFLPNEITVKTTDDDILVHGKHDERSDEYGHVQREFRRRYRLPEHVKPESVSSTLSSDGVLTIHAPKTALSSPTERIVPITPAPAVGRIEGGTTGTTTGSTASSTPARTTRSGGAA

Chain of Heat gamma (chain, as listed by the source): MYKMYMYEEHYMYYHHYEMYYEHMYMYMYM
Chain of bovine serum albumin (P02769 25-607): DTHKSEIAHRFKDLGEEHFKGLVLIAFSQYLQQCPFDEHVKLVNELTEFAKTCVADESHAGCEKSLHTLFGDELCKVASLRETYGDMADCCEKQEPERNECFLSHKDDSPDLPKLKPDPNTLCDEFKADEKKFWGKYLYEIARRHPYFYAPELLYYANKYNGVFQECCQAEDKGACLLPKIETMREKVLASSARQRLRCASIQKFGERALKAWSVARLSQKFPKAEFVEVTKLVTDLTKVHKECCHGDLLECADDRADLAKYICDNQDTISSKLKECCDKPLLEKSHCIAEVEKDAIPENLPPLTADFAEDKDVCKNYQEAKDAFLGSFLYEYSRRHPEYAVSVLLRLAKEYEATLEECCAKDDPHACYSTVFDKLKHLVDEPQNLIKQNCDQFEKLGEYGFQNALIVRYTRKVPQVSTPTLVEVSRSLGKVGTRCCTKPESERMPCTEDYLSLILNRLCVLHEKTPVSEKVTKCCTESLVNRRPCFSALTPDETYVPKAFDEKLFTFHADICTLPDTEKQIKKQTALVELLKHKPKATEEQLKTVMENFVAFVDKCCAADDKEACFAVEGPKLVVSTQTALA
Chain of activated recombinant MMP9 (chain, as listed by the source): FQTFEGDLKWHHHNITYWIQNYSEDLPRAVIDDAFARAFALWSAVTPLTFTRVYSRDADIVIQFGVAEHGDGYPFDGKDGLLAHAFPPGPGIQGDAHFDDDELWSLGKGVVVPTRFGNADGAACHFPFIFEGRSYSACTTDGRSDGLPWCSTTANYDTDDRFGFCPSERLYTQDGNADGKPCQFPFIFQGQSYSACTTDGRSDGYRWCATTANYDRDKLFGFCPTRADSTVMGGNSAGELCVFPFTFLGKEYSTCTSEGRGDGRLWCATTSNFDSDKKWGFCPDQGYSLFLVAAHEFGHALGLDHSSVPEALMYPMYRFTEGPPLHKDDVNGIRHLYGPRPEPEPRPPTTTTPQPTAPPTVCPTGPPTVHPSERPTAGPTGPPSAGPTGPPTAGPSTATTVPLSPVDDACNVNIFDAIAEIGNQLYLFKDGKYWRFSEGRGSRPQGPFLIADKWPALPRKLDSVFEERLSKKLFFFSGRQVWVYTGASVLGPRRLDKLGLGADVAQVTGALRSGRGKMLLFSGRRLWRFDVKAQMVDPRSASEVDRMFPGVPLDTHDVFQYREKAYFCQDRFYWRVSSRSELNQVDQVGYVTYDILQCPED

With Nde I restriction endonuclease, the “cleavage of pET-28a by Nde I after 1 hour pretreatment at 40° C. (agarose gel)” value with bovine serum albumin is “An equivalent amount of BSA (5 µg) did not protect the enzyme any better than the buffer control”; in series [1], “In the presence of 5 µg of p26 protein, Nde I remained fully active, and completely cleaved pET-28a”.
In the case of activated recombinant MMP9, the “cleavage of Fluorogenic Peptide substrate I by 0.270 µg activated recombinant MMP9, 60 µg Heat Gamma” value with Heat gamma is given as “Heat gamma efficiently inhibits the MMP9 activity as indicated by a decrease in relative fluorescence”.
